In patent US20240132593A1 (KINETA, published 2024):
Values joined by “and” are separate entries in the source; they are usually repeats but may differ in a detail not shown here. Equal values may be shown once. Values belong to the binder of their own block, whether it stands above or below them.

Columns and labels:
[1] = target: T1, His-tagged recombinant mouse VISTA-ECD (Met 1 to Ala 194) (mouse, UniProt Q9D659 33-194); assay: ELISA endpoint, His-VISTA on plate, mAb at 23 µg/mL
T1 construct: Bought (Sino Biological); not shown: His tag
T1 sequence: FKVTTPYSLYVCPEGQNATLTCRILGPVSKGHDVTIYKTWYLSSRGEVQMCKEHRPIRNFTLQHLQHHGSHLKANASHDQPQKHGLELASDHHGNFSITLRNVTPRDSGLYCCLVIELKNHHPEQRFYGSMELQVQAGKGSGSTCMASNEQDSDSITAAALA

[2] = target: T2, His-tagged recombinant cynomolgus monkey VISTA-ECD (Met 1 to Ala 194) (cynomolgus monkey, UniProt Q9H7M9 33-194 (human entry)); assay: BLI Octet, mAb on AHC sensor, cyno VISTA-ECD-His 300 nM
T2 construct: also called cyno VISTA; Cyno VISTA
T2 chain: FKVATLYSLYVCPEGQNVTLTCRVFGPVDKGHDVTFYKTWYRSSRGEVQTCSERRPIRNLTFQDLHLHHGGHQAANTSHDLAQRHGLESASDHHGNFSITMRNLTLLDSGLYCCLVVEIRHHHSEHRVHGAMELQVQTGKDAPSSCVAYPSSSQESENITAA
Procedure: (§1) Octet scouting: Antibody affinities were measured using biolayer interferometry (BLI) on the Octet Red 96 (ForteBio) system. Anti-human IgG Fc Capture (AHC) dip and read sensors (ForteBio) were used to capture each anti-VISTA antibody formatted as either an IgG1 or IgG4 and diluted to 20 μg/mL in PBS pH 7.4. AHC sensors were dipped into antibody solution for 180 s to capture each IgG on the sensor. An initial baseline was established by soaking each sensor in PBS pH 7.4 for an additional 120 s. […] Human, cynomolgus monkey, and mouse VISTA-ECD were evaluated. Studies were performed by association with VISTA-ECD for 240 s and dissociation in PBS pH 7.4 for 360 s. Data analysis was performed using Octet Data Analysis software version 9.0.0.14. In general, baseline alignment without subtraction was used for raw data processing. A Savitzky-Golay digital filter was used to remove high-frequency noise, and processed data were globally fit to a 1:1 binding model. Where binding was present, the affinity constant (KD) was calculated for each antibody-antigen pair.

[3] = target: T3, His-tagged recombinant human VISTA-ECD (Met 1 to Ala 194) (human, UniProt Q9H7M9 33-194); assay: ELISA, His-tagged human VISTA ECD on plate, mAb titrated
T3 construct: also called hu.VISTA; VISTA-His; not shown: His tag

[4] = target: T3, His-tagged recombinant human VISTA-ECD …; assay: BLI Octet, reversed format (avidity): hu VISTA-ECD-His on HIS1K sensor, mAb 133.3 nM
RFQ-VISTA-ECD-Fc = target: T4, RFQ-VISTA-ECD-Fc (human); assay: ELISA, 10 ug/mL antibody on plate-bound mutant VISTA-Fc
T4 construct: also called hVISTA ECD-Fc R54A, F62A, Q63A; human VISTA-Fc 54A62A63A
Procedure: (§2) ELISA was used to measure antibody binding to wild-type and mutant VISTA essentially as described above. VISTA-Fc (5 μg/mL) was immobilized on Maxisorb 96-well ELISA plates and reacted with each antibody diluted to 10 μg/mL in a standard ELISA format. Binding data were reported as absorbance at 450 nm.

[5] = target: T5, his-tagged human VISTA-ECD (human, UniProt Q9H7M9 33-194); assay: BLI sandwich binning; VISTA-ECD-His held by capture Ab 173.1 (competitor)
T5 construct: also called hu.VISTA; VISTA protein (Human recombinant, produced in HEK 293 cells, SinoBiologics); not shown: His tag

[6] = target: T5, his-tagged human VISTA-ECD; assay: BLI sandwich binning; VISTA-ECD-His held by capture Ab 245.1 (competitor)
Procedure: (§3) Octet binning studies: Epitope mapping was performed by BLI on the Octet system. AHC sensors were used to capture anti-VISTA antibody (20 μg/mL) over 100 s. Unbound sites on the sensor were blocked with a saturating amount (50 μg/mL) of pooled purified human IgG for 180 s. Antigen (his-tagged human VISTA-ECD at 100 nM) was bound to immobilized antibody for 180 s, after which the sensor was interrogated for the ability of a paired antibody to bind the antigen in the sandwiched format. Multiple pairing arrangements were interrogated such that each antibody was used as the capture antibody in the format at least one time. Data are represented as response (nm) for the secondary antibody.

[7] = target: T5, his-tagged human VISTA-ECD; assay: BLI sandwich binning; VISTA-ECD-His held by capture Ab 269.1 (competitor)
Procedure: as §3

[8] = target: T5, his-tagged human VISTA-ECD; assay: BLI sandwich binning; VISTA-ECD-His held by capture Ab 321.1 (competitor)
Procedure: as §3

[9] = target: T5, his-tagged human VISTA-ECD; assay: BLI sandwich binning; VISTA-ECD-His held by capture Ab 457.1 (competitor)
Procedure: as §3

[10] = target: T5, his-tagged human VISTA-ECD; assay: BLI sandwich binning; VISTA-ECD-His held by capture Ab 465.1 (competitor)
Procedure: as §3

[11] = target: T5, his-tagged human VISTA-ECD; assay: BLI sandwich binning; VISTA-ECD-His held by capture Ab VSTB-174 (competitor)
Procedure: as §3

[12] = target: T3, His-tagged recombinant human VISTA-ECD …; assay: ELISA endpoint, His-VISTA on plate, mAb at 2 µg/mL
Procedure: (§4) Nickel-coated 96-well ELISA plates (Thermo Scientific) or Maxisorb 96-well polystyrene ELISA plates were coated overnight at 4° C. with 50 μL of a 0.5-1 μg/mL solution of His-tagged VISTA protein (SinoBiological, Met1-Ala194 produced in HE293 cells) in 0.1M NaHCO₃ pH 9.6. All subsequent incubations were performed at room temperature. Wells were washed 3 times with PBST (0.05% Tween 20) and blocked for 2 h with 200 μL 5% BSA in PBST. […] Each antibody dilution was incubated at 50-100 μL/well in the ELISA plate for 1 h, after which plates were washed 3 times with PBST and incubated with a 1:20,000 dilution of Biotin SP AffiniPure Donkey Anti-Human IgG (H+L) polyclonal antibody (Jackson ImmunoResearch, 50-100 μL/well) for 1 h. Wells were washed 3 times with PBST, and the plates were incubated with 50-100 μL of a 1:200 dilution of Streptavidin-HRP (R&D Systems) for 30 min. Wells were washed 3 times with PBST and developed with 100 μL 1-Step Ultra Fast TMB Substrate (Thermo Scientific) for 2 minutes. The reaction was stopped with 100 μL 2N H₂SO₄, and plate well absorbance was measured at 450 nm (Biotek ELx808).

[13] = target: T2, His-tagged recombinant cynomolgus …; assay: ELISA endpoint, His-VISTA on plate, mAb at 2 µg/mL
Procedure: as §4

[14] = target: T3, His-tagged recombinant human VISTA-ECD …; assay: BLI Octet, mAb on AHC sensor, hu VISTA-ECD-His 50 nM
Procedure: as §1

[15] = target: T6, His-tagged recombinant mouse VISTA-ECD (Met 1 to Ala 194) (Sino Biological) (mouse, UniProt Q9D659 33-194); assay: BLI (Octet Red 96), antibody on AHC sensor
T6 construct: not shown: His tag
T6 sequence: T1 sequence

[16] = target: T7, hVISTA ECD-Fc R54A, F62A, Q63A (human); assay: ELISA on immobilized VISTA-Fc (5 µg/mL), antibody at 10 µg/mL
T7 construct: also called human VISTA-Fc 54A62A63A; triple VISTA-Fc mutant
T7 sequence (chain, as listed by the source R54A F62A Q63A R54A F62A Q63A): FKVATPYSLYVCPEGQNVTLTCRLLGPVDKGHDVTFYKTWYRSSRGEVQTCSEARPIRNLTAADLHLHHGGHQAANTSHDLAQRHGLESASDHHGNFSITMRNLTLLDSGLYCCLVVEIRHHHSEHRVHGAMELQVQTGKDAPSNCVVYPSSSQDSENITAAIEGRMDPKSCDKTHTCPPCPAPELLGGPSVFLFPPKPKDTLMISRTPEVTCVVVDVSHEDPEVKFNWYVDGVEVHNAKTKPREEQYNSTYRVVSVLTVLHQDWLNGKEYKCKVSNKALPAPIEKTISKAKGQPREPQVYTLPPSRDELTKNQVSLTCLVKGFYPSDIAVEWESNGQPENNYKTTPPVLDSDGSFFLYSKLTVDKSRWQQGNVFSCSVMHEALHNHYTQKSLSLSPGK
Procedure: as §2

- endpoint absorbance (450 nm) [1]: 0.079
- Response [2]: 0.434
- EC50 [3]: 0.475 µg/mL
- Kd [4]: < 1 pM
B1: Antibody No. 269.1 (antibody, human IgG1, kappa)
heavy: not shown
light: EIVLTQSPDFQSVTPKEKVTITCRASQSIGSSLHWYQQKPDQSPKLLIKYASQSISGVPSRFSGSGSGTDFTLTINSLEAEDAAAYYCHQSSSLPQTFGQGTKVEIKRTVAAPSVFIFPPSDEQLKSGTASVVCLLNNFYPREAKVQWKVDNALQSGNSQESVTEQDSKDSTYSLSSTLTLSKADYEKHKVYACEVTHQGLSSPVTKSFNRGEC
notes: Human IgG1, kappa

- ELISA Abs 450 nm (RFQ-VISTA-ECD-Fc): 1.65 Abs 450 nm
- BLI response of secondary antibody [5]: 0.0651 nm
- BLI response of secondary antibody [6]: 0.0319 nm
- BLI response of secondary antibody [7]: 0.066 nm
- BLI response of secondary antibody [8]: 0.0542 nm
- BLI response of secondary antibody [9]: 0.0507 nm
- BLI response of secondary antibody [10]: 0.0505 nm
- BLI response of secondary antibody [11]: 0.0261 nm
B2: Antibody No. 269.1 (antibody, human IgG1, kappa)
heavy: not shown
light: B1 light
notes: human IgG1

- ELISA Abs 450 nm (RFQ-VISTA-ECD-Fc): 1.56 Abs 450 nm
B3: Antibody No. 833.1 (antibody, human IgG1, kappa)
heavy: not shown
light: B1 light
notes: human IgG1; also called Ab No. 833.1

- endpoint absorbance (450 nm) [12]: 2.02
- endpoint absorbance (450 nm) [13]: 1.89
- Response [14]: 0.334
- EC50 [3]: 0.074 µg/mL and 0.5 nM
B4: Antibody No. 833.1 (antibody, human IgG1, kappa)
heavy: not shown
light: B1 light
notes: Human IgG1, kappa; also called Ab No. 833.1

- binding result [15]: no binding (tested: 50 nM-300 nM)
- binding result [16]: binds
B5: Antibody No. 833.1 (antibody, human IgG1, kappa)
light: B1 light
heavy: not shown
notes: also called Ab No. 833.1

- endpoint absorbance (450 nm) [12]: 2.04
- endpoint absorbance (450 nm) [13]: 2
- endpoint absorbance (450 nm) [1]: 0.082
- Response [2]: 0.456
- EC50 [3]: 0.394 µg/mL
B6: Antibody No. 457.1 (antibody, human IgG1, kappa)
heavy: not shown
light: EIVLTQSPATLSLSPGERATLSCGASQSVSSNYLAWYQQKPGLAPRLLIYGASSRATGVPDRFSGSGSGTDFTLTISRLEPEDFAVYYCQQYGYSYTFGQGTKLEIKRTVAAPSVFIFPPSDEQLKSGTASVVCLLNNFYPREAKVQWKVDNALQSGNSQESVTEQDSKDSTYSLSSTLTLSKADYEKHKVYACEVTHQGLSSPVTKSFNRGEC
notes: Human IgG1, kappa

- ELISA Abs 450 nm (RFQ-VISTA-ECD-Fc): 1.6 Abs 450 nm
- BLI response of secondary antibody [5]: 0.0675 nm
- BLI response of secondary antibody [6]: 0.0427 nm
- BLI response of secondary antibody [7]: 0.0173 nm
- BLI response of secondary antibody [8]: 0.0481 nm
- BLI response of secondary antibody [9]: 0.0481 nm
- BLI response of secondary antibody [10]: 0.044 nm
- BLI response of secondary antibody [11]: 0.0285 nm
B7: Antibody No. 457.1 (antibody, human IgG1, kappa)
heavy: not shown
light: B6 light
notes: human IgG1
